T1: Human ROBO2 Ig1-Ig2-His (human, UniProt Q9HCK4 31-220)
T1 construct: the His tag is named only in the SPR paragraphs; the Octet and ELISA paragraphs print 'ROBO2 Ig1-Ig2' without a tag; also called ROBO2 Ig1-2; Human ROBO2 Ig 1,2
T1 sequence: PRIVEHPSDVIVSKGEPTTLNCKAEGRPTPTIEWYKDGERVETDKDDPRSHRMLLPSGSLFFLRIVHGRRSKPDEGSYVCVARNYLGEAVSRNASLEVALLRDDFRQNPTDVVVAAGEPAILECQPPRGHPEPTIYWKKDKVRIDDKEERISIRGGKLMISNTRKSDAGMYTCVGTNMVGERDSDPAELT

T2: Terbium (Tb) labeled-SNAP tagged ROBO2 expressed on HEK293 cells (Homo sapiens (Human), UniProt Q9HCK4 22-1378, terbium label on the SNAP tag)
T2 construct: also called Tb-labeled ROBO2 cells; ROBO2 expressing cells; not shown: SNAP tag
T2 sequence: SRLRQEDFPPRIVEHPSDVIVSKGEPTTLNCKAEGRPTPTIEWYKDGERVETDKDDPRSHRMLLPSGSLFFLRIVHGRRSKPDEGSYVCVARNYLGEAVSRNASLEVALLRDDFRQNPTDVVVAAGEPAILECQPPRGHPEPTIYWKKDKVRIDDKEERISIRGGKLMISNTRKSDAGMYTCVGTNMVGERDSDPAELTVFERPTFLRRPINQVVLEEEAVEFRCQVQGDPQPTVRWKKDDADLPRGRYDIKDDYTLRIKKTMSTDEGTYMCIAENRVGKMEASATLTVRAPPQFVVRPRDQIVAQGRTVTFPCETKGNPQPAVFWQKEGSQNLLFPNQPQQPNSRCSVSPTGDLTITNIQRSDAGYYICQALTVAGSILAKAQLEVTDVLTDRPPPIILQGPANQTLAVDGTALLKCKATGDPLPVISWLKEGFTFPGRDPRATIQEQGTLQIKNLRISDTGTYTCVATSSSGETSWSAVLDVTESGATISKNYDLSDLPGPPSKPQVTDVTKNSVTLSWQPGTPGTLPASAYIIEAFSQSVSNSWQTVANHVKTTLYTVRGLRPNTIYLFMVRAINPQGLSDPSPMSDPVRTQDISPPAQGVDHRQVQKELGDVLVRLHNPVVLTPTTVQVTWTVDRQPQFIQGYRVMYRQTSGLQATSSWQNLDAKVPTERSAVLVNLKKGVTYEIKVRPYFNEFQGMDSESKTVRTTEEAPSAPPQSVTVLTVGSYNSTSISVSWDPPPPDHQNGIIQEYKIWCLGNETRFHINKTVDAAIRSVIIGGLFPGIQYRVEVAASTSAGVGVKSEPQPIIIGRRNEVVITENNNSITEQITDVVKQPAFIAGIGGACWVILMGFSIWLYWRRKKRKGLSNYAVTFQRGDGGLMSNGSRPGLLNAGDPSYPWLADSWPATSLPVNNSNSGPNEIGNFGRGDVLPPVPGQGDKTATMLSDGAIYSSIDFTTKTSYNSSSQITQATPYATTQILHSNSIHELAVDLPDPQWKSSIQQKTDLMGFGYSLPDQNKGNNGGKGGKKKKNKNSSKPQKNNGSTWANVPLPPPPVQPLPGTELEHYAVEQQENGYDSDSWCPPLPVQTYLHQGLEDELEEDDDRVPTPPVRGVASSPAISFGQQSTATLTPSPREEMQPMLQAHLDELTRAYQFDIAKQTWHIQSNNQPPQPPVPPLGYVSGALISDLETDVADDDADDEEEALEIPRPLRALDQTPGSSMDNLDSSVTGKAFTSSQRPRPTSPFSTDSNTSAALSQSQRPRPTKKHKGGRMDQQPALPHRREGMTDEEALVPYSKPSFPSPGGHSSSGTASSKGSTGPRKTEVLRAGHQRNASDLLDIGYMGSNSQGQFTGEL


Experiments:
[1] = target: T1, Human ROBO2 Ig1-Ig2-His; experiment: SPR, antibody on CM5 chip, ROBO2 Ig1-Ig2-His
Procedure: Based upon several criteria, Abcs25 and Abcs35 were selected for further characterization. Using flow cytometry, improvement in the binding EC₅₀ to human ROBO2 relative to the parental 93H2 was evaluated. Starting at 6.7 nM, 11-point, 3-fold dilution series were made for each antibody and used to stain HEK293 overexpressing human ROBO2 as described above for the ROBO2 fold selectivity (Example 2). […] In addition to measuring improved binding to human ROBO2, it was important to ensure that high affinity binding to both cynomolgus monkey ROBO2 and rat ROBO2 was maintained. Using HEK293 cells overexpressing either cynomolgus monkey ROBO2 or rat ROBO2, the relative dose-dependent binding of 93H2, Abcs25 and Abcs35 was evaluated as described above. High affinity binding to both cynomolgus monkey and rat ROBO2 was maintained in Abcs25 and Abcs35 (Table 4). […] Briefly, Abcs35 was immobilized to 300 resonance units (RU) on a CM5 chip. Association of ROBO2 Ig1-Ig2-His (ROBO2) was measured over 5 minutes and dissociation was followed for a period of 10 minutes.
Affinity was measured by standard SPR methods as described in Example 3. Briefly, antibodies were immobilized to a specific measure of resonance units (RU) on a CM5 chip. Association of ROBO2 Ig1-Ig2-His (ROBO2) and dissociation will be followed for a period of time.

[2] = target: T2, Terbium (Tb) labeled-SNAP tagged ROBO2 …; experiment: HTRF competition, competitor d2-SLIT2-N, ROBO2 HEK293 cells
Procedure: A ROBO2-SLIT2-N homogenous time resolved fluorescence (HTRF) assay was used to identify antibodies that were capable of blocking SLIT2-N binding to ROBO2. In this assay, terbium (Tb) labeled-SNAP tagged ROBO2 expressing HEK293 cells were incubated with 5 nM d2-labeled SLIT-2N in the presence of 1 nM anti-ROBO2 antibodies for 1 hour. After incubation, fluorescence at 665 nm and 620 nm was measured on an Envision multilabel plate reader. […] Maximal signal was defined as the HTRF ratio of Tb-labeled ROBO2 cells with d2-labeled SLIT2-N in the absence of antibody, the minimum signal was defined as the HTRF ratio of Tb-labeled ROBO2 expressing HEK293 cells only. One nanomolar (nM) parental antibody, 93H2, was unable to block the HTRF assay, therefore this concentration was selected to identify clones with a higher affinity than 93H2 (Table 2, HTRF Ratio column). […] Antibodies derived from chain (Abcs series) or CDR shuffling (CTIR-2 series) were evaluated in 11-point, 5-fold dilution series with a top concentration of 1500 nM (Table 2 HTRF IC₅₀).
Neutralization of SLIT2-N binding to ROBO2 was assessed ROBO2:SLIT2-N homogenous time resolved fluorescence (HTRF) assay as described in Example 2. Briefly the HTRF assay was performed as follows: terbium (Tb) labeled-SNAP tagged ROBO2 expressing HEK293 cells were incubated with d2-labeled SLIT-2N in the presence of anti-ROBO2 antibodies for 1 hour. After incubation, fluorescence at 665 nm and 620 nm was measured on an Envision multi-label plate reader. […] Maximal signal was defined as the HTRF ratio of Tb-labeled ROBO2 cells with d2-labeled SLIT2-N in the absence of antibody, the minimum signal was defined as the HTRF ratio of Tb-labeled ROBO2 expressing HEK293 cells only.

| Binder | Kd [1] | IC50 [2] |
| --- | --- | --- |
| Abcs35-A (antibody, human IgG1, kappa, germlined variant of Abcs35; also called Abcs-A) heavy: EVQLVQSGAEVKKPGASVKVSCKASGYTFTGYYMHWVRQAPGQGLEWMGWINPKNGDTEFPQKFQGRVTMTRDTSITTAYMDLSRLRSDDTAVYYCARESGDDAFDIWGQGTMVTVSSASTKGPSVFPLAPSSKSTSGGTAALGCLVKDYFPEPVTVSWNSGALTSGVHTFPAVLQSSGLYSLSSVVTVPSSSLGTQTYICNVNHKPSNTKVDKKVEPKSCDKTHTCPPCPAPEAAGAPSVFLFPPKPKDTLMISRTPEVTCVVVDVSHEDPEVKFNWYVDGVEVHNAKTKPREEQYNSTYRVVSVLTVLHQDWLNGKEYKCKVSNKALPAPIEKTISKAKGQPREPQVYTLPPSREEMTKNQVSLTCLVKGFYPSDIAVEWESNGQPENNYKTTPPVLDSDGSFFLYSKLTVDKSRWQQGNVFSCSVMHEALHNHYTQKSLSLSPGK light: not shown | 0.099 nM | 0.0728 nM |
| Abcs35-D (antibody, human IgG1, kappa, germlined variant of Abcs35) heavy: EVQLVQSGAEVKKPGASVKVSCKASGYTFTGYYMHWVRQAPGQGLEWMGWINPKNGDTEFPQKFQGRVTMTRDTSISTAYMELSRLRSDDTAVYYCARESGDDAFDIWGQGTMVTVSSASTKGPSVFPLAPSSKSTSGGTAALGCLVKDYFPEPVTVSWNSGALTSGVHTFPAVLQSSGLYSLSSVVTVPSSSLGTQTYICNVNHKPSNTKVDKKVEPKSCDKTHTCPPCPAPEAAGAPSVFLFPPKPKDTLMISRTPEVTCVVVDVSHEDPEVKFNWYVDGVEVHNAKTKPREEQYNSTYRVVSVLTVLHQDWLNGKEYKCKVSNKALPAPIEKTISKAKGQPREPQVYTLPPSREEMTKNQVSLTCLVKGFYPSDIAVEWESNGQPENNYKTTPPVLDSDGSFFLYSKLTVDKSRWQQGNVFSCSVMHEALHNHYTQKSLSLSPGK light: DIVMTQSPSSLSASVGDRVTITCRASQSISSYLNWYQQKPGKAPKLLIYAASSLQSGVPSRFSGSGSGTDFTLTISSLQPEDFATYYCQQSVGLFFGGGTKVEIKRTVAAPSVFIFPPSDEQLKSGTASVVCLLNNFYPREAKVQWKVDNALQSGNSQESVTEQDSKDSTYSLSSTLTLSKADYEKHKVYACEVTHQGLSSPVTKSFNRGEC | 0.125 nM | 0.0639 nM |
| Abcs35-B (antibody, human IgG1, kappa, germlined variant of Abcs35) heavy: EVQLVQSGAEVKKPGASVKVSCKASGYTFTGYYMHWVRQAPGQGLEWMGWINPKNGDTEFPQKFQGRVTMTRDTSISTAYMDLSRLRSDDTAVYYCARESGDDAFDIWGQGTMVTVSSASTKGPSVFPLAPSSKSTSGGTAALGCLVKDYFPEPVTVSWNSGALTSGVHTFPAVLQSSGLYSLSSVVTVPSSSLGTQTYICNVNHKPSNTKVDKKVEPKSCDKTHTCPPCPAPEAAGAPSVFLFPPKPKDTLMISRTPEVTCVVVDVSHEDPEVKFNWYVDGVEVHNAKTKPREEQYNSTYRVVSVLTVLHQDWLNGKEYKCKVSNKALPAPIEKTISKAKGQPREPQVYTLPPSREEMTKNQVSLTCLVKGFYPSDIAVEWESNGQPENNYKTTPPVLDSDGSFFLYSKLTVDKSRWQQGNVFSCSVMHEALHNHYTQKSLSLSPGK light: DIVMTQSPSSLSASVGDRVTITCRASQSISSYLNWYQQKPGKAPKLLIYAASSLQSGVPSRFSGSGSGTDFTLTISSLQPEDFATYYCQQSVGLFFGGGTKVEIKRTVAAPSVFIFPPSDEQLKSGTASVVCLLNNFYPREAKVQWKVDNALQSGNSQESVTEQDSKDSTYSLSSTLTLSKADYEKHKVYACEVTHQGLSSPVTKSFNRGEC | 0.123 nM | 0.0765 nM |
| Abcs35-C (antibody, human IgG1, kappa, germlined variant of Abcs35) heavy: EVQLVQSGAEVKKPGASVKVSCKASGYTFTGYYMHWVRQAPGQGLEWMGWINPKNGDTEFPQKFQGRVTMTRDTSITTAYMELSRLRSDDTAVYYCARESGDDAFDIWGQGTMVTVSSASTKGPSVFPLAPSSKSTSGGTAALGCLVKDYFPEPVTVSWNSGALTSGVHTFPAVLQSSGLYSLSSVVTVPSSSLGTQTYICNVNHKPSNTKVDKKVEPKSCDKTHTCPPCPAPEAAGAPSVFLFPPKPKDTLMISRTPEVTCVVVDVSHEDPEVKFNWYVDGVEVHNAKTKPREEQYNSTYRVVSVLTVLHQDWLNGKEYKCKVSNKALPAPIEKTISKAKGQPREPQVYTLPPSREEMTKNQVSLTCLVKGFYPSDIAVEWESNGQPENNYKTTPPVLDSDGSFFLYSKLTVDKSRWQQGNVFSCSVMHEALHNHYTQKSLSLSPGK light: DIVMTQSPSSLSASVGDRVTITCRASQSISSYLNWYQQKPGKAPKLLIYAASSLQSGVPSRFSGSGSGTDFTLTISSLQPEDFATYYCQQSVGLFFGGGTKVEIKRTVAAPSVFIFPPSDEQLKSGTASVVCLLNNFYPREAKVQWKVDNALQSGNSQESVTEQDSKDSTYSLSSTLTLSKADYEKHKVYACEVTHQGLSSPVTKSFNRGEC | 0.0821 nM | 0.074 nM |
| Abcs35-E (antibody, human IgG1, kappa, germlined variant of Abcs35; also called Abcs35-eE) heavy: QVQLVQSGAEVKKPGASVKVSCKASGYTFTGYYMHWVRQAPGQGLEWMGWINPKNGDTEFPQKFQGRVTMTRDTSITTAYMDLSRLRSDDTAVYYCARESGDDAFDIWGQGTMVTVSSASTKGPSVFPLAPSSKSTSGGTAALGCLVKDYFPEPVTVSWNSGALTSGVHTFPAVLQSSGLYSLSSVVTVPSSSLGTQTYICNVNHKPSNTKVDKKVEPKSCDKTHTCPPCPAPEAAGAPSVFLFPPKPKDTLMISRTPEVTCVVVDVSHEDPEVKFNWYVDGVEVHNAKTKPREEQYNSTYRVVSVLTVLHQDWLNGKEYKCKVSNKALPAPIEKTISKAKGQPREPQVYTLPPSREEMTKNQVSLTCLVKGFYPSDIAVEWESNGQPENNYKTTPPVLDSDGSFFLYSKLTVDKSRWQQGNVFSCSVMHEALHNHYTQKSLSLSPGK light: DIVMTQSPSSLSASVGDRVTITCRASQSISSYLNWYQQKPGKAPKLLIYAASSLQSGVPSRFSGSGSGTDFTLTISSLQPEDFATYYCQQSVGLFFGGGTKVEIKRTVAAPSVFIFPPSDEQLKSGTASVVCLLNNFYPREAKVQWKVDNALQSGNSQESVTEQDSKDSTYSLSSTLTLSKADYEKHKVYACEVTHQGLSSPVTKSFNRGEC | 0.128 nM | 0.0651 nM |
